This assay deals with Bim BH3 peptide (FITC-labeled) BH3 (Homo sapiens, UniProt O43521, FITC-labeled Bim BH3 peptide, GST-tagged Mcl-1). Nature of the assay: fluorescence polarization.

B1: Mcl-1 (GST-tagged) 152-309 (protein)
chain: EDDLYRQSLEIISRYLREQATGSKDSKPLGEAGAAGRRALETLRRVGDGVQRNHETAFQGMLRKLDIKNEGDVKSFSRVMVHVFKDGVTNWGRIVTLISFGAFVAKHLKSVNQESFIEPLAETITDVLVRTKRDWLVKQRGWDGFVEFFHVQDLEGGI
As a reminder, the Kd is the concentration at which binding is half-saturated. Lower therefore signals a tighter complex. Molecule B1 yielded a Kd of 12.4 nM.

Source of the values: publication PMC10620989 (2023).
